Test [1] addresses T1, biotinylated HLA-A2/WT1126 (…) monomer (human, biotin at a specific biotinylation site at the C-terminus).
T1 construct: also called HLA-A2-WT1 monomer; WT1126/HLA-A2
Kind of test: SPR (Biacore).
Method: (§1) Kinetics and affinities of various antibodies and WT1₁₂₆/HLA-A2 were analyzed by surface plasmon resonance technology using a Biacore T100 instrument (GE healthcare). Biotinylated WT1₁₂₆/HLA-A2 was captured by streptavidin-fusion protein on a sensor chip (CM5). A control reference surface was prepared for nonspecific binding and refractive index changes. For analysis of the kinetics of interactions, varying concentrations of antibodies were injected at flow rate of 30 μl/min using a running buffer containing 10 mM HEPES, 150 mM NaCl, 3 mM EDTA, and 0.05% Surfactant P-20 (pH 7.4). The association and dissociation phase data were fitted simultaneously to a 1:1 model by using BIAevaluation 3.2. All the experiments were done at 25° C.

In test [2] the target is T2, HLA-A2/pp65 (…) on T2 cells (human; human cytomegalovirus).
T2 construct: also called T2 cells loaded with control peptide pp65
Kind of test: flow cytometry on peptide-loaded T2 cells.

For test [3], the target named is T1, biotinylated HLA-A2/WT1126 (…) monomer. The experiment in a line: SPR Biacore T100; biotinylated pMHC captured, antibody injected; 1:1 fit.
Method: as §1
The target in test [4] is HLA-A2/WT1 187-195 (…) complex (human, biotin at a specific biotinylation site at the C-terminus). The experiment in a line: ELISA on wells coated with the named HLA-A2/peptide monomer, HRP anti-Flag detection, OD 490 nm.
Test [5] has as its target HLA-A2/WT1 235-243 (…) complex (human, biotin at a specific biotinylation site at the C-terminus). The test is described as above.
In test [6] the target is T3, HLA-A2/CDR2 (…) tetramer (human).
T3 construct: Peptide from cerebellar degeneration-related protein 2; also called negative control (HLA-A2-CDR2) tetramer; irrelevant HLA-A2/CDR2-derived peptide
The experiment in a line: flow cytometry of scFv-displaying yeast, negative control HLA-A2-CDR2 tetramer (y, Binding) against scFv expression (x). For orientation: Flow cytometry measures light scatter and fluorescence of single cells or particles in a stream.

Test [7] deals with T3, HLA-A2/CDR2 (…) tetramer. The experiment in a line: flow cytometry of CAR NK-92 cells, control HLA-A2/CDR2 tetramer (y) against GFP (x).

One may read the Kd as the free concentration of one partner at which half of the binding sites on the other are occupied at equilibrium, for simple one-to-one binding. Higher therefore signals lower affinity.

B1: Clone45 scFv (scFv)
scFv: EVQLLESGGGLVQPGGSLRLSCAASGFTFSSYAMSWVRQAPGKGLEWVSQIDPWGQETLYADSVKGRFTISRDNSKNTLYLQMNSLRAEDTAVYYCAKLTGRFDYWGQGTLVTVSSGGGGSGGGGSGGGGSTDIQMTQSPSSLSASVGDRVTITCRASQSISSYLNWYQQKPGKAPKLLIYSASQLQSGVPSRFSGSGSGTDFTLTISSLQPEDFATYYCQQGPGTPNTFGQGTKVEIKRA
notes: also called scFv Clone45; parental Clone45
Consider B1, for which the results for the Kd in test [1] and in test [3] were 300 nM and 263 nM, respectively. In addition, the binding result in test [2], in test [4], in test [5] and in test [6] was “no binding” throughout.

B2: Q2L-CAR (other)
chain: EVQLLESGGGLVQPGGSLRLSCAASGFTFSSYAMSWVRQAPGKGLEWVSLIDPWGQETLYADSVKGRFTISRDNSKNTLYLQMNSLRAEDTAVYYCAKLTGRFDYWGQGTLVTVSSGGGGSGGGGSGGGGSTDIQMTQSPSSLSASVGDRVTITCRASQSISSYLNWYQQKPGKAPKLLIYSASLLQSGVPSRFSGSGSGTDFTLTISSLQPEDFATYYCQQGPGTPNTFGQGTKVEIKRA
notes: Chimeric antigen receptor on the surface of human T cells or NK-92-MI cells; also called anti-HLA-A2/WT1126 CAR; NK-92-MI-scFv(Q2L); not shown: hinge region, CD8 alpha transmembrane domain, 4-1BB and CD3 zeta chain
Take B2: the binding result in test [7] is recorded as “no binding”.

Source of the values: patent publication US20160152725A1 (Memorial Sloan Kettering, published 2016).
